This data set concerns the molecule itself. As to the kind of experiment: SEC; Superdex 200 Increase 10/300 GL, McIlvaine buffer pH 4.6, 0.3 mL/min; purified protein; fractions tested by 4-MUF fucosidase activity (FUCA1) or H6-tag western blot (FUCA2-H6). (Size exclusion chromatography separates by hydrodynamic size, large species first.)

B1: H6-tagged human tissue α-L-fucosidase 1 (FUCA1-H6) (enzyme, UniProt P04066 32-466, looked up)
chain: QPPRRYTPDWPSLDSRPLPAWFDEAKFGVFIHWGVFSVPAWGSEWFWWHWQGEGRPQYQRFMRDNYPPGFSYADFGPQFTARFFHPEEWADLFQAAGAKYVVLTTKHHEGFTNWPSPVSWNWNSKDVGPHRDLVGELGTALRKRNIRYGLYHSLLEWFHPLYLLDKKNGFKTQHFVSAKTMPELYDLVNSYKPDLIWSDGEWECPDTYWNSTNFLSWLYNDSPVKDEVVVNDRWGQNCSCHHGGYYNCEDKFKPQSLPDHKWEMCTSIDKFSWGYRRDMALSDVTEESEIISELVQTVSLGGNYLLNIGPTKDGLIVPIFQERLLAVGKWLSINGEAIYASKPWRVQWEKNTTSVWYTSKGSAVYAIFLHWPENGVLNLESPITTSTTKITMLGIQGDLKWSTDPDKGLFISLPQLPPSAVPAEFAWTIKLTGVK
notes: human tissue α-L-fucosidase FUCA1; N-glycosylated; also called H6-tagged FUCA1; H6-tagged human fucosidase; source: HT1080 cells, stably expressing, conditioned medium, purified (Ni-NTA)
Turning to B1, the binding result is given as “binds”.

B2: untagged human tissue α-L-fucosidase 1 (FUCA1) (enzyme, UniProt P04066 32-466, looked up)
chain: QPPRRYTPDWPSLDSRPLPAWFDEAKFGVFIHWGVFSVPAWGSEWFWWHWQGEGRPQYQRFMRDNYPPGFSYADFGPQFTARFFHPEEWADLFQAAGAKYVVLTTKHHEGFTNWPSPVSWNWNSKDVGPHRDLVGELGTALRKRNIRYGLYHSLLEWFHPLYLLDKKNGFKTQHFVSAKTMPELYDLVNSYKPDLIWSDGEWECPDTYWNSTNFLSWLYNDSPVKDEVVVNDRWGQNCSCHHGGYYNCEDKFKPQSLPDHKWEMCTSIDKFSWGYRRDMALSDVTEESEIISELVQTVSLGGNYLLNIGPTKDGLIVPIFQERLLAVGKWLSINGEAIYASKPWRVQWEKNTTSVWYTSKGSAVYAIFLHWPENGVLNLESPITTSTTKITMLGIQGDLKWSTDPDKGLFISLPQLPPSAVPAEFAWTIKLTGVK
notes: human tissue α-L-fucosidase FUCA1; untagged, secreted into the medium; N-glycosylated; also called untagged FUCA1; hFUCA1; source: CHO-K1 cells, stably expressing, conditioned medium, purified (ammonium sulfate precipitation, strong cation exchange)
B2: the binding result is “binds”.
